In article PMC6048556:

How the values were obtained:
[1] = target: PIP30/FAM192A (endogenous) (human (endogenous in U2OS, HeLa, U937)) (UniProt Q9GZU8); assay: co-IP
[2] = target: PA28γ (endogenous) (human (endogenous in U2OS, HeLa, U937)) (UniProt P61289); assay: co-IP

Sequence of UniProt Q9GZU8 (Q9GZU8 whole entry): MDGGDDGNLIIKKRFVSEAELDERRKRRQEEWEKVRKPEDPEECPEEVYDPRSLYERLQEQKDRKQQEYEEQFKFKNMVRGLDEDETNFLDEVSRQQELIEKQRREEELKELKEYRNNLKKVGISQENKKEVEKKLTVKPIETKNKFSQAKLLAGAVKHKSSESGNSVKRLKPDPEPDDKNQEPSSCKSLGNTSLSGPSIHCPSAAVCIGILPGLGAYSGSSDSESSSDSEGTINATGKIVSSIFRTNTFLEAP

| percent coprecipitated [1] [%] | percent coprecipitated [2] [%] | Substance |
| --- | --- | --- |
| > 70 | – | PA28γ (endogenous) (from UniProt P61289 1-254) (natural protein) |
| – | > 70 | PIP30/FAM192A (endogenous) (from UniProt Q9GZU8 1-254) (natural protein) |
